Reference: paper doi:10.1101/2025.11.27.690993

Molecular target: SroF^Phi3T, master repressor of phage Phi3T (recombinant) (Bacillus phage Phi3T)
Test: BLI

Sar^Phi3T, shorter annotation lacking the first 10 amino acids (recombinant) (natural protein)
Kd: 0.0217 µM
